How the values were obtained:
[1] = target: T1, FLAG-tagged human IL-11 expressed at the surface of transiently transfected cells (human, UniProt P20809 22-199); test: flow cytometry, hybridoma supernatant on cells transfected with pB1-IL11-hum.FL
T1 construct: also called IL-11 expressing HEK cells; target cells expressing human IL-11 at their surface; not shown: FLAG tag added to the N-terminus
T1 sequence: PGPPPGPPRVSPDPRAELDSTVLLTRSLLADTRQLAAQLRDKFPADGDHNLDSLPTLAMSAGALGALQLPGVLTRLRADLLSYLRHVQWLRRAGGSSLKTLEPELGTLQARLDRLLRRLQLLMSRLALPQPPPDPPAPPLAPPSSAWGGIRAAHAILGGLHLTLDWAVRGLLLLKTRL

[2] = target: T1, FLAG-tagged human IL-11 expressed at …; test: flow cytometry, hybridoma supernatant on cells transfected with pB1-IL11-hum.FL; relative to the anti-FLAG positive control (100%)
[3] = target: T2, Human IL-11 (human, UniProt P20809 22-199); test: told from inhibition of MMP2 secretion by TGFB1-stimulated primary human atrial fibroblasts (FIG. 54A)
T2 construct: Recombinant human IL-11 (GenScript Cat. No. Z03108-1) or IL-11 secreted by human cells; the mature form is said to have 178 residues; also called recombinant human IL-11; endogenously produced IL-11
T2 sequence: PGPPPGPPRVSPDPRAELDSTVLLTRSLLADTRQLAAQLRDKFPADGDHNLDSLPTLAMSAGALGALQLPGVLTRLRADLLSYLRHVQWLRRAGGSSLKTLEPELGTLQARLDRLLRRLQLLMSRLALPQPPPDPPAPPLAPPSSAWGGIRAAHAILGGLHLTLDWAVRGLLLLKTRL
Experimental: Primary human atrial fibroblasts were incubated with TGFB1 (5 ng/ml) and varying concentrations of humanised 3C6 clones. MMP2 secretion into the supernatant by human atrial fibroblasts was assessed to estimate the % of inhibition.

Binder	GMFI [1]	binding relative to anti-FLAG positive control [2]	binding result [3]
BSN-5B8 (antibody, V domains shown) VH: QVQLQQSGAELARPGTSVKLSCKASGYTFTSYGISWVKQRTGQGLEWIGEIYPRSSNTYYNEKFKGKATLTADKSSSTAYMELRSLTSEDSADYFCARANWVGYFDVWGTGTTVTVSS VL: DIVMTQSHKFMSTSVGDRVTITCKASQDVGTAVAWYQQKPGQSPKLLIYWASTRLTGVPDRFTGSGSGTYFTLTINNVQSEDLADYFCQQYSSYRTFGGGTKLEIK	236000	188%	–
BSN-7D4 (antibody, V domains shown, Mouse monoclonal antibody from a hybridoma; also called A12) VH: EVQLQQSGPELVKPGASVKISCKASGYTFTDYNMDWVKQSQGKRLEWIGDINPNYGGTIYNQKFKGKATLTVDKSSSTAYMELRSLTSEDTTVYYCTRGELGHWYFDVWGTGTTVTVSS VL: DIVLTQSPPSLTVSLGQRATISCRASKSVSASGYSYMHWYQQKPGQPPKLLIYLTSNLESGVPARFSGSGSGTDFTLNIHPVEEEDAATYYCQHSWDLPPTFGGGTKLEIK	221000	176%	–
Humanised 3C6 clone VH 2.2/VL 2.2 (antibody, V domains shown, also called 3C6 VH2.2/VL2.2) VH: EVQLVQSGAEVKKPGASVKISCKASGYTFTDYNMDWVKQAPGQRLEWIGDINPHNGGPIYNQKFTGRATLTVDKSASTAYMELSSLRSEDTAVYYCARGELGHWYFDVWGQGTTVTVSS VL: DIVLTQSPASLALSPGERATLSCRASKSVSTSGYSYIHWYQQKPGQAPRLLIYLASNLDSGVPARFSGSGSGTDFTLTISSLEEEDFATYYCQHSRDLPPTFGQGTKLEIK	–	–	binds
Humanised 3C6 clone VH 2.3/VL 2.2 (antibody, V domains shown) VH: EVQLVQSGAEVKKPGASVKISCKASGYTFTDYNMDWVRQAPGQRLEWIGDINPHNGGPIYNQKFTGRVTLTVDKSASTAYMELSSLRSEDTAVYYCARGELGHWYFDVWGQGTTVTVSS VL: DIVLTQSPASLALSPGERATLSCRASKSVSTSGYSYIHWYQQKPGQAPRLLIYLASNLDSGVPARFSGSGSGTDFTLTISSLEEEDFATYYCQHSRDLPPTFGQGTKLEIK	–	–	binds
Humanised 3C6 clone VH 2.2/VL 2.3 (antibody, V domains shown) VH: EVQLVQSGAEVKKPGASVKISCKASGYTFTDYNMDWVKQAPGQRLEWIGDINPHNGGPIYNQKFTGRATLTVDKSASTAYMELSSLRSEDTAVYYCARGELGHWYFDVWGQGTTVTVSS VL: DIVLTQSPATLSLSPGERATLSCRASKSVSTSGYSYIHWYQQKPGQAPRLLIYLASNLDSGVPARFSGSGSGTDFTLTISSLEPEDFATYYCQHSRDLPPTFGQGTKLEIK	–	–	binds
Humanised 3C6 clone VH 2.2/VL 2.4 (antibody, V domains shown) VH: EVQLVQSGAEVKKPGASVKISCKASGYTFTDYNMDWVKQAPGQRLEWIGDINPHNGGPIYNQKFTGRATLTVDKSASTAYMELSSLRSEDTAVYYCARGELGHWYFDVWGQGTTVTVSS VL: EIVLTQSPATLSLSPGERATLSCRASKSVSTSGYSYIHWYQQKPGQAPRLLIYLASNLDSGVPARFSGSGSGTDFTLTISSLEPEDFATYYCQHSRDLPPTFGQGTKLEIK	–	–	binds
Humanised 3C6 clone VH 2.2/VL 2.1 (antibody, V domains shown, T0003 heads the columns Heavy chain and Light chain, but the entries are variable domains; also called 3C6 VH2.2/VL2.1) VH: EVQLVQSGAEVKKPGASVKISCKASGYTFTDYNMDWVKQAPGQRLEWIGDINPHNGGPIYNQKFTGRATLTVDKSASTAYMELSSLRSEDTAVYYCARGELGHWYFDVWGQGTTVTVSS VL: DIVLTQSPASLALSPGERATLSCRASKSVSTSGYSYIHWYQQKPGQPPRLLIYLASNLDSGVPARFSGSGSGTDFTLNIHPLEEEDFATYYCQHSRDLPPTFGQGTKLEIK	–	–	binds
Humanised 3C6 clone VH 2.3/VL 2.3 (antibody, V domains shown) VH: EVQLVQSGAEVKKPGASVKISCKASGYTFTDYNMDWVRQAPGQRLEWIGDINPHNGGPIYNQKFTGRVTLTVDKSASTAYMELSSLRSEDTAVYYCARGELGHWYFDVWGQGTTVTVSS VL: DIVLTQSPATLSLSPGERATLSCRASKSVSTSGYSYIHWYQQKPGQAPRLLIYLASNLDSGVPARFSGSGSGTDFTLTISSLEPEDFATYYCQHSRDLPPTFGQGTKLEIK	–	–	binds
